Data as given in paper PMC7138851, “Quantitative assessment of the determinant structural differences between redox-active and inactive glutaredoxins” (Nature Communications, 2020).

Assays:
Assay in all cases: purified protein, by the assay type
Set-up in all cases: GSSCys oxidoreductase assay, steady-state kinetics, coupled NADPH consumption at 340 nm, pH 8.0, 25 °C
Conditions in all cases: pH 8.0; 25.0 °C
[1] = substrate: N[C@@H](CCC(=O)N[C@@H](CSSC[C@H](N)C(=O)O)C(=O)NCC(=O)O)C(=O)O
Description: (§1) Steady-state kinetics of wild-type and mutant ScGrx7 and HsGrx5^C122S in the GSSCys and [compound left out] assays were determined spectrophotometrically by monitoring the consumption of NADPH at 340 nm and 25 °C using a thermostated Jasco V-650 UV/vis spectrophotometer[11],[19],[25]. Fresh stock solutions of NADPH, GSH, GR, and GSSCys or [compound left out] were prepared in assay buffer containing 0.1 M Tris/HCl, 1 mM EDTA, pH 8.0 before each experiment. Both assays were performed with 0.1 mM NADPH and 1 U/ml ScGR. The following final protein concentrations were used for Y110F/H/A (5–150 nM), D144A/K (10 nM), E147A/K (10 nM), R153A/E (25–50 nM), ScGrx7^WP (20 nM), ScGrx7^loop (up to 1.4 µM), ScGrx7^WP+loop (up 2.6 µM), HsGrx5^C122S (up to 15 µM), HsGrx5^RR (up to 12 µM), HsGrx5^loop (up to 1.6 µM), and HsGrx5^RR+loop (up to 4.0 µM). For the GSSCys assays, GSH was varied between 50 µM and 1.5 mM at fixed GSSCys concentrations (25, 50, 100, and 150 µM). NADPH, GSH, and GR were mixed in assay buffer before Grx was added and a baseline was recorded for 30 s. All GSSCys assays were started by the addition of GSSCys. The absorbance of a reference cuvette containing all components but no Grx was measured in parallel and subtracted from the obtained Grx activity. For the [compound left out] assays, GSH was varied between 100 µM and 2.0 mM at fixed concentrations of [compound left out] (0.18, 0.37, 0.55, and 0.74 mM). NADPH, GSH, and [compound left out] were preincubated in assay buffer for 2 min before GR was added and a baseline was recorded for 30 s. All [compound left out] assays were started by the addition of enzyme. Kinetic data were analyzed in Excel and SigmaPlot 13 by nonlinear and linear regression according to Michaelis–Menten, Lineweaver–Burk, Eadie–Hofstee, and Hanes theory[11],[19],[25]. 13 Supplementary Figure 7 Supplementary Figure 7 | GSSCys assay steady-state kinetics of ScGrx7 wild-type enzyme and D144X mutants. (a) Michaelis-Menten plots of the GSH-dependent reaction velocity at different initial concentrations of GSSCys. […]

[2] = substrate: N[C@@H](CCC(=O)N[C@@H](CS)C(=O)NCC(=O)O)C(=O)O
Description: as §1

[3] = substrate: N[C@@H](CCC(=O)N[C@@H](CSSC[C@H](N)C(=O)O)C(=O)NCC(=O)O)C(=O)O; remark: listed apart in the source
Description: as §1

[4] = substrate: N[C@@H](CCC(=O)N[C@@H](CS)C(=O)NCC(=O)O)C(=O)O; remark: listed apart in the source
Description: as §1

[5] = substrate: N[C@@H](CCC(=O)N[C@@H](CSSC[C@H](N)C(=O)O)C(=O)NCC(=O)O)C(=O)O; remark: listed apart in the source
Description: as §1

[6] = substrate: N[C@@H](CCC(=O)N[C@@H](CS)C(=O)NCC(=O)O)C(=O)O; remark: listed apart in the source
Description: as §1

[7] = substrate: N[C@@H](CCC(=O)N[C@@H](CS)C(=O)NCC(=O)O)C(=O)O; remark: listed apart in the source
Description: as §1

[8] = substrate: N[C@@H](CCC(=O)N[C@@H](CSSC[C@H](N)C(=O)O)C(=O)NCC(=O)O)C(=O)O; remark: listed apart in the source
Description: as §1

[9] = substrate: N[C@@H](CCC(=O)N[C@@H](CSSC[C@H](N)C(=O)O)C(=O)NCC(=O)O)C(=O)O; remark: listed apart in the source
Description: as §1

B1: ScGrx7 (Saccharomyces cerevisiae S288C) (protein)
chain: SVNESITTHHPDSLVTFDNSGNAPGTHQSVHDTVNTQDKEAEEVDKNSGDAEFDAAAEYNKIMEQSPMIVFSKTGCPYSKKLKALLTNSYTFSPSYYVVELDRHEHTKELQDQIEKVTGRRTVPNVIIGGTSRGGYTEIAELHKNDELLDSFKKWSDGAFTVKANSQSESA
notes: E. coli XL1-Blue, pQE30; N-terminal MRGS(H)6 tag
Km [1]: 427 µM
Km [2]: 1479 µM
kcat [2]: 334 s⁻¹
Km [3]: 257 µM
Km [4]: 744 µM
kcat [4]: 206 s⁻¹
Km [5]: 155 ± 29.9 µM
kcat [5]: 114 ± 13 s⁻¹
kcat/Km [5]: 735000 M⁻¹ s⁻¹
Km [6]: 244 ± 27.1 µM
kcat [6]: 68 ± 2.4 s⁻¹
kcat/Km [6]: 279000 M⁻¹ s⁻¹
Km [7]: 286 ± 45 µM
kcat [7]: 79.9 ± 27 s⁻¹
kcat/Km [7]: 273000 M⁻¹ s⁻¹
Km [8]: 266 ± 129 µM
kcat [8]: 163 ± 54.8 s⁻¹
kcat/Km [8]: 612000 M⁻¹ s⁻¹
Km [9]: 320 ± 91 µM
kcat [9]: 239 ± 54 s⁻¹
kcat/Km [9]: 757000 M⁻¹ s⁻¹
